Source: patent US20110189729

Biological target: lambda integrase Int-h/218 h/218 mutant (substitutions not given) (Bacteriophage lambda) (UniProt P03700)
Assay: cell_activity
Details: CHO-DG44

In the case of “GCTGTTACAGGTCACTAATACCATCTATGTAGTTGATTCATATTGTCTGCATATCTTGTGTTTTACAGTATTATCTAGTCTGTTTTTTATCCAAAATCTAATTTATTATATTGATATTTATATCATTTTACGTTTCTCGTTCAGCTTTTTTATACTAAGTTGGCATTATAAAAAAGCATTGCTTATCAATTTGTTGCAACGAACAGGTCACTATCAGTCAAAATATAATCATTATTTGATTTC / GAAATCAAATAATGATTATATTTTGACTGATAGTGACCTGTTCGTTGCAACAAATTGATAAGCAATGCTTTTTTATAATGCCAACTTAGTATAAAAAAGCTGAACGAGAAACGTAAAATGATATAAATATCAATATAATAAATTAGATTTTGGATAAAAAACAGACTAGATAATACTGTAAAACACAAGATATGCAGACAATATGAATCAACTACATAGATGGTATTAGTGACCTGTAACAGC / GCTGTTACAGGTCACTAATACCATCTATGTAGTTGATTCATATTGTCTGCATATCTTGTGTTTTACAGTATTATCTAGTCTGTTTTTTATCCAAAATCTAATTTATTATATTGATATTTATATCATTTTACGTTTCTCGTTCAGCTTTTTTATACTAAGTTGGCATTATAAAAAAGCATTGCTTATCAATTTGTTGCAACGAACAGGTCACTATCAGTCAAAATATAATCATTATTTGATTTC / GAAATCAAATAATGATTATATTTTGACTGATAGTGACCTGTTCGTTGCAACAAATTGATAAGCAATGCTTTTTTATAATGCCAACTTAGTATAAAAAAGCTGAACGAGAAACGTAAAATGATATAAATATCAATATAATAAATTAGATTTTGGATAAAAAACAGACTAGATAATACTGTAAAACACAAGATATGCAGACAATATGAATCAACTACATAGATGGTATTAGTGACCTGTAACAGC [attP.a ; attP.a]”, the activity (% fluorescent cells) (attP.a x attP.a, no IHF plasmid) is reported as 1.9.
Work on “TCTGTTACAGGTCACTAATACCATCTAAGTAGTTGATTCATAGTGACTGCATATGTTGTGTTTTACAGTATTATGTAGTCTGTTTTTTATGCAAAATCTAATTTAATATATTGATATTTATATCATTTTACGTTTCTCGTTCAGCTTTTTTATACTAAGTTGGCATTATAAAAAAGCATTGCTTATCAATTTGTTGCAACGAACAGGTCACTATCAGTCAAAATAAAATCATTATTTGATTTC / GAAATCAAATAATGATTTTATTTTGACTGATAGTGACCTGTTCGTTGCAACAAATTGATAAGCAATGCTTTTTTATAATGCCAACTTAGTATAAAAAAGCTGAACGAGAAACGTAAAATGATATAAATATCAATATATTAAATTAGATTTTGCATAAAAAACAGACTACATAATACTGTAAAACACAACATATGCAGTCACTATGAATCAACTACTTAGATGGTATTAGTGACCTGTAACAGA / CTGCTTTTTTATACTAACTTG / CAAGTTAGTATAAAAAAGCAG [attP ; attB]” yielded an activity (% fluorescent cells) (attP x attB, with IHF, 1.1% without IHF plasmid) of 1.7.
For “TCTGTTACAGGTCACTAATACCATCTAAGTAGTTGATTCATAGTGACTGCATATGTTGTGTTTTACAGTATTATGTAGTCTGTTTTTTATGCAAAATCTAATTTAATATATTGATATTTATATCATTTTACGTTTCTCGTTCAGCTTTTTTATACTAAGTTGGCATTATAAAAAAGCATTGCTTATCAATTTGTTGCAACGAACAGGTCACTATCAGTCAAAATAAAATCATTATTTGATTTC / GAAATCAAATAATGATTTTATTTTGACTGATAGTGACCTGTTCGTTGCAACAAATTGATAAGCAATGCTTTTTTATAATGCCAACTTAGTATAAAAAAGCTGAACGAGAAACGTAAAATGATATAAATATCAATATATTAAATTAGATTTTGCATAAAAAACAGACTACATAATACTGTAAAACACAACATATGCAGTCACTATGAATCAACTACTTAGATGGTATTAGTGACCTGTAACAGA / GCTGTTACAGGTCACTAATACCATCTACGTAGTTGATTCATATTGTCTGCATATCTTGTGTTTTACAGTATTATCTAGTCTGTTTTTTATCCAAAATCTAATTTATTATATTGATATTTATATCATTTTACGTTTCTCGTTCAGCTTTTTTATACTAACTTG / CAAGTTAGTATAAAAAAGCTGAACGAGAAACGTAAAATGATATAAATATCAATATAATAAATTAGATTTTGGATAAAAAACAGACTAGATAATACTGTAAAACACAAGATATGCAGACAATATGAATCAACTACGTAGATGGTATTAGTGACCTGTAACAGC [attP ; attR.b]”, the activity (% fluorescent cells) (attP x attR.b, with IHF and XIS) was 1.1.
In the case of “TCTGTTACAGGTCACTAATACCATCTAAGTAGTTGATTCATAGTGACTGCATATGTTGTGTTTTACAGTATTATGTAGTCTGTTTTTTATGCAAAATCTAATTTAATATATTGATATTTATATCATTTTACGTTTCTCGTTCAGCTTTTTTATACTAAGTTGGCATTATAAAAAAGCATTGCTTATCAATTTGTTGCAACGAACAGGTCACTATCAGTCAAAATAAAATCATTATTTGATTTC / GAAATCAAATAATGATTTTATTTTGACTGATAGTGACCTGTTCGTTGCAACAAATTGATAAGCAATGCTTTTTTATAATGCCAACTTAGTATAAAAAAGCTGAACGAGAAACGTAAAATGATATAAATATCAATATATTAAATTAGATTTTGCATAAAAAACAGACTACATAATACTGTAAAACACAACATATGCAGTCACTATGAATCAACTACTTAGATGGTATTAGTGACCTGTAACAGA / GCTGTTACAGGTCACTAATACCATCTATGTAGTTGATTCATATTGTCTGCATATCTTGTGTTTTACAGTATTATCTAGTCTGTTTTTTATCCAAAATCTAATTTATTATATTGATATTTATATCATTTTACGTTTCTCGTTCAGCTTTTTTATACTAACTTG / CAAGTTAGTATAAAAAAGCTGAACGAGAAACGTAAAATGATATAAATATCAATATAATAAATTAGATTTTGGATAAAAAACAGACTAGATAATACTGTAAAACACAAGATATGCAGACAATATGAATCAACTACATAGATGGTATTAGTGACCTGTAACAGC [attP ; attR.a]”, the activity (% fluorescent cells) (attP x attR.a, with IHF and XIS) is reported as 1.5.
With “TCTGTTACAGGTCACTAATACCATCTAAGTAGTTGATTCATAGTGACTGCATATGTTGTGTTTTACAGTATTATGTAGTCTGTTTTTTATGCAAAATCTAATTTAATATATTGATATTTATATCATTTTACGTTTCTCGTTCAGCTTTTTTATACTAAGTTGGCATTATAAAAAAGCATTGCTTATCAATTTGTTGCAACGAACAGGTCACTATCAGTCAAAATAAAATCATTATTTGATTTC / GAAATCAAATAATGATTTTATTTTGACTGATAGTGACCTGTTCGTTGCAACAAATTGATAAGCAATGCTTTTTTATAATGCCAACTTAGTATAAAAAAGCTGAACGAGAAACGTAAAATGATATAAATATCAATATATTAAATTAGATTTTGCATAAAAAACAGACTACATAATACTGTAAAACACAACATATGCAGTCACTATGAATCAACTACTTAGATGGTATTAGTGACCTGTAACAGA / TCTGTTACAGGTCACTAATACCATCTAAGTAGTTGATTCATAGTGACTGCATATGTTGTGTTTTACAGTATTATGTAGTCTGTTTTTTATGCAAAATCTAATTTAATATATTGATATTTATATCATTTTACGTTTCTCGTTCAGCTTTTTTATACTAACTTG / CAAGTTAGTATAAAAAAGCTGAACGAGAAACGTAAAATGATATAAATATCAATATATTAAATTAGATTTTGCATAAAAAACAGACTACATAATACTGTAAAACACAACATATGCAGTCACTATGAATCAACTACTTAGATGGTATTAGTGACCTGTAACAGA [attP ; attR]” the activity (% fluorescent cells) (attP x attR, with IHF and XIS) was 2.3.
Work on “TCTGTTACAGGTCACTAATACCATCTAAGTAGTTGATTCATAGTGACTGCATATGTTGTGTTTTACAGTATTATGTAGTCTGTTTTTTATGCAAAATCTAATTTAATATATTGATATTTATATCATTTTACGTTTCTCGTTCAGCTTTTTTATACTAAGTTGGCATTATAAAAAAGCATTGCTTATCAATTTGTTGCAACGAACAGGTCACTATCAGTCAAAATAAAATCATTATTTGATTTC / GAAATCAAATAATGATTTTATTTTGACTGATAGTGACCTGTTCGTTGCAACAAATTGATAAGCAATGCTTTTTTATAATGCCAACTTAGTATAAAAAAGCTGAACGAGAAACGTAAAATGATATAAATATCAATATATTAAATTAGATTTTGCATAAAAAACAGACTACATAATACTGTAAAACACAACATATGCAGTCACTATGAATCAACTACTTAGATGGTATTAGTGACCTGTAACAGA / TCTGTTACAGGTCACTAATACCATCTAAGTAGTTGATTCATAGTGACTGCATATGTTGTGTTTTACAGTATTATGTAGTCTGTTTTTTATGCAAAATCTAATTTAATATATTGATATTTATATCATTTTACGTTTCTCGTTCAGCTTTTTTATACTAAGTTGGCATTATAAAAAAGCATTGCTTATCAATTTGTTGCAACGAACAGGTCACTATCAGTCAAAATAAAATCATTATTTGATTTC / GAAATCAAATAATGATTTTATTTTGACTGATAGTGACCTGTTCGTTGCAACAAATTGATAAGCAATGCTTTTTTATAATGCCAACTTAGTATAAAAAAGCTGAACGAGAAACGTAAAATGATATAAATATCAATATATTAAATTAGATTTTGCATAAAAAACAGACTACATAATACTGTAAAACACAACATATGCAGTCACTATGAATCAACTACTTAGATGGTATTAGTGACCTGTAACAGA [attP ; attP]” yielded an activity (% fluorescent cells) (attP x attP, no IHF plasmid) of 1.9.
